Legend:
Assay in all cases: NMR titration
[1] = molecular target: MLL CXXC R1150A (human, UniProt Q03164 1147-1203, R1150A)
[2] = molecular target: MLL CXXC L1197A (human, UniProt Q03164 1147-1203, L1197A)
[3] = molecular target: MLL CXXC M1200A (human, UniProt Q03164 1147-1203, M1200A)
[4] = molecular target: MLL CXXC C1188A (human, UniProt Q03164 1147-1203, C1188A)
[5] = molecular target: MLL CXXC domain WT (human, UniProt Q03164 1147-1203)
[6] = molecular target: MLL CXXC Q1187A (human, UniProt Q03164 1147-1203, Q1187A)
Chain of MLL CXXC Q1187A (Q03164 1147-1203 Q1187A): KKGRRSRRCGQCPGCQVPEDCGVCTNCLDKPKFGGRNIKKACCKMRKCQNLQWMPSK

Chain of MLL CXXC L1197A (Q03164 1147-1203 L1197A): as the sequence (Q03164 1147-1203 Q1187A) above, with A41Q, L51A counted along it
Chain of MLL CXXC domain WT (Q03164 1147-1203): as the sequence (Q03164 1147-1203 Q1187A) above, with A41Q counted along it
Chain of MLL CXXC M1200A (Q03164 1147-1203 M1200A): as the sequence (Q03164 1147-1203 Q1187A) above, with A41Q, M54A counted along it
Chain of MLL CXXC C1188A (Q03164 1147-1203 C1188A): as the sequence (Q03164 1147-1203 Q1187A) above, with A41Q, C42A counted along it
Chain of MLL CXXC R1150A (Q03164 1147-1203 R1150A): as the sequence (Q03164 1147-1203 Q1187A) above, with R4A, A41Q counted along it

B1: DNApal (dsDNA)
DNA 1: CCCTGCGCAGGG
DNA 2: CCCTGCGCAGGG
- binding signal [1]: 5 fold decrease in binding vs WT
- binding signal [2]: 4 fold decrease in binding vs WT
- binding result [3]: binds
- binding result [4]: binds
- Kd [5]: 44 µM
- binding signal [6]: 6 fold higher Kd vs WT
